Residues, ends and D or L forms follow the SMILES beside them. Primed or numbered codes have the meaning given here. No end group written: not given here. *: point of attachment. 5FAM = O=C1OC2(c3ccc(O)cc3Oc3cc(O)ccc32)c2ccc(C(=O)*)cc21; FITC′ = fluorescein isothiocyanate
Molecular target: T1, Bcl-2/iso1 (Homo sapiens, UniProt P10415, DEL35-91/INS34DVEENRTEAPEGTESE/R110G/T96A)
T1 construct: His tag (pET28b, thrombin-cleavable) (N, cleaved yes); made in house; host or cells: E. coli BL21(DE3)
Assay: Fluorescence polarization titration of fluoresceinated probe peptides with Bcl-2/iso1
Assay type: binding
Conditions: not given
Procedure: (3) (FITC)-AAQRYGRELRRMSDEFVR(SEQ ID NO:19). The dissociation constants of these fluoresceinated peptides from Bcl-2/iso1 are ˜20 nM, ˜50 nM, and ˜100 nM, respectively.
All titrations were automated by means of an Abbott clinical diagnostics instrument (IMx, FPIA mode) modified with a special protocol for performing titrations. A complete two-fold dilution series, comprised of twenty separate 2 mL samples, was obtained by delivering appropriate individual aliquots to the first seven tubes, aliquots from an intermediate diluted stock for the next seven, and one more intermediate dilution for the final six. […] The concentrations of the DMSO stock solutions of the peptide were 1–4 mM as determined by Trp absorbance (O.D. 280 nm), Tyr absorbance (O.D. 293), or amino acid analysis. […] Twenty 1.8 uL samples were prepared without fluoresceinatedpeptide and read as blanks. To each tube, 0.2 uL of a Bcl-2, fluoresceinatedpeptide mixture was added; the tubes were incubated for 5 min at 35° C., and then read for total intensity and polarization. […]
Steady state polarization data can be analyzed to extract the fractions of bound and free fluorescent ligand owing to the linear additivity of their anisotropy values, weighted by their respective fractional intensities (Lakowicz, JR. Principles of Fluorescence Spectroscopy. New York, N.Y.: Plenum Press (1983)). […]

T1 sequence (P10415 with tags, fused parts or gaps with the stated changes): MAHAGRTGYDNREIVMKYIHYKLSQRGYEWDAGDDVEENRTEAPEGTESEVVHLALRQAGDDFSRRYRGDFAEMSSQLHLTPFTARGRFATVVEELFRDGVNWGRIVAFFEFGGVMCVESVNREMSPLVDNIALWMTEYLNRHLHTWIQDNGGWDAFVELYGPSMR

Molecule | Kd
CSCC[C@H](NC(=O)[C@H](CCCNC(=N)N)NC(=O)[C@H](CCCNC(=N)N)NC(=O)[C@H](CC(C)C)NC(=O)[C@H](CCC(=O)O)NC(=O)[C@H](CCCNC(=N)N)NC(=O)CNC(=O)[C@H](Cc1ccc(O)cc1)NC(=O)[C@H](CCCNC(=N)N)NC(=O)[C@H](CCC(N)=O)NC(=O)[C@H](C)NC(=O)[C@H](C)NC(=O)[C@H](C)NC(=O)[C@H](C)NC(=O)[C@H](C)NC(=O)c1ccc2c(c1)C(=O)OC21c2ccc(O)cc2Oc2cc(O)ccc21)C(=O)N[C@@H](CO)C(=O)N[C@@H](CC(=O)O)C(=O)N[C@@H](CCC(=O)O)C(=O)N[C@@H](Cc1ccccc1)C(=O)N[C@H](C(=O)N[C@@H](CC(=O)O)C(=O)N[C@@H](CO)C(=O)N[C@@H](Cc1ccccc1)C(=O)N[C@@H](CCCCN)C(=O)N[C@@H](CCCCN)C(=O)O)C(C)C (5FAM-AAAAAQRYGRELRRMSDEFVDSFKK-OH) | ~20 nM
CSCC[C@H](NC(=O)[C@H](CCCNC(=N)N)NC(=O)[C@H](CCCNC(=N)N)NC(=O)[C@H](CC(C)C)NC(=O)[C@H](CCC(=O)O)NC(=O)[C@H](CCCNC(=N)N)NC(=O)CNC(=O)[C@H](Cc1ccc(O)cc1)NC(=O)[C@H](CCCNC(=N)N)NC(=O)[C@H](CCC(N)=O)NC(=O)[C@H](C)NC(=O)[C@H](C)NC(=O)[C@H](C)NC(=O)[C@H](C)NC(=O)[C@H](C)NC(=O)c1ccc2c(c1)C(=O)OC21c2ccc(O)cc2Oc2cc(O)ccc21)C(=O)N[C@@H](CO)C(=O)N[C@@H](CC(=O)O)C(=O)N[C@@H](CCC(=O)O)C(=O)N[C@@H](Cc1ccccc1)C(=O)N[C@H](C(=O)N[C@@H](CC(=O)O)C(=O)N[C@@H](CO)C(=O)N[C@@H](CCCCN)C(=O)N[C@@H](CCCCN)C(=O)O)C(C)C (5FAM-AAAAAQRYGRELRRMSDEFVDSKK-OH; C-terminus assumed) | ~50 nM

Molecular target: mutant Bcl-2/iso1 protein (Bcl-2/iso1 residues 1-34, Bcl-xL loop residues 29-44, Bcl-2/iso1 residues 92-207; plasmid C) (human)
Assay: competitive fluorescence polarization, displacement of a fluorescein-labeled peptide probe from Bcl-2 (340 nM)
Conditions: not given

Molecule | Kd
NLWAAQRYGREARRMSDEFVDSFKK [peptide … (SEQ ID NO:33)] | 7480 nM
NLWGAQRYGRELRRMSDEFVDSFKK [peptide … (SEQ ID NO:24)] | 159 nM
NLWAAQRYGRELRRMSAEFVDSFKK [peptide … (SEQ ID NO:34)] | 762 nM
NLWAAQRYGRELRRMSDEFVDSFKA [peptide … (SEQ ID NO:29)] | 22 nM
NLWAAQRYARELRRMSDEFVAAFKK [peptide … (SEQ ID NO:32)] | 186 nM
GGGAAQRYGRELRRMSDEFVDSFKK [peptide … (SEQ ID NO:30)] | 63 nM
NLWAAQRYGRELRRMSDEFVD [peptide … (SEQ ID NO:36)] | 2330 nM
NLWAAQRYGRELRRMSDEFVDSFAK [peptide … (SEQ ID NO:28)] | 123 nM
NLWAAQRYGRELRRMSDEFVDAFKK [peptide … (SEQ ID NO:26)] | 26 nM
AAAAAQRYGRELRRMSDEFVDSFKK [peptide … (SEQ ID NO:17), not labeled] | 74 nM
QRYGRELRRMSDEFVDSFKK [peptide … (SEQ ID NO:35)] | 711 nM
NAWAAQRYGRELRRMSDEFVDSFKK [peptide … (SEQ ID NO:22)] | 75 nM
NLWAAQRYGRELRRMSDEFVDSAKK [peptide … (SEQ ID NO:27)] | 397 nM
ALWAAQRYGRELRRMSDEFVDSFKK [peptide … (SEQ ID NO:21)] | 211 nM
NLAAAQRYGRELRRMSDEFVDSFKK [peptide … (SEQ ID NO:23)] | 39 nM
NLWAGQRYGRELRRMSDEFVDSFKK [peptide … (SEQ ID NO:25)] | 105 nM
NLWAAQRYGRELRRMSDEFVDSFKK [peptide … (SEQ ID NO:20)] | 14 nM
NLPAAQRYGRELRRMSDEFVDSFKK [peptide … (SEQ ID NO:31)] | 54 nM

Molecular target: mutant Bcl-2/iso2 protein (plasmid C construct with Ala96 to Thr96 and Gly110 to Arg110; plasmid D) (human)
Assay: as above
Conditions: not given

Molecule | Kd
GQVGRQLAIIGDDINR [peptide … (SEQ ID NO:37)] | 1600 nM
NLWAAQRYGRELRRMSDEFVDSFKK [peptide … (SEQ ID NO:20)] | 8 nM

Molecular target: T1, Bcl-2/iso1
Assay: Competitive fluorescence polarization assay, peptide binding to Bcl-2/iso1
Conditions: not given
Procedure: A competitive fluorescence polarization assay was used to measure the affinity of various peptides for Bcl-2/iso1 (see Table 2) or Bcl-2/iso2 (see Table 3). Competitive assays were performed using one of the following three fluorescein-labeled peptides as a probe:
All titrations were automated by means of an Abbott clinical diagnostics instrument (IMx, FPIA mode) modified with a special protocol for performing titrations. A complete two-fold dilution series, comprised of twenty separate 2 mL samples, was obtained by delivering appropriate individual aliquots to the first seven tubes, aliquots from an intermediate diluted stock for the next seven, and one more intermediate dilution for the final six. […] The final DMSO concentration for all samples never exceeded 1%. Twenty 1.8 uL samples were prepared without fluoresceinatedpeptide and read as blanks. To each tube, 0.2 uL of a Bcl-2, fluoresceinatedpeptide mixture was added; the tubes were incubated for 5 min at 35° C., and then read for total intensity and polarization.

Molecule | Kd
NLWAAQRYGRELRRMSDEFVDSAKK [SEQ ID NO:27] | 397 nM
NLAAAQRYGRELRRMSDEFVDSFKK [SEQ ID NO:23] | 39 nM
NLWGAQRYGRELRRMSDEFVDSFKK [SEQ ID NO:24] | 159 nM
ALWAAQRYGRELRRMSDEFVDSFKK [SEQ ID NO:21] | 211 nM
NLWAAQRYGRELRRMSDEFVD [SEQ ID NO:36] | 2330 nM
NLWAAQRYGREARRMSDEFVDSFKK [SEQ ID NO:33] | 7480 nM
NLPAAQRYGRELRRMSDEFVDSFKK [SEQ ID NO:31] | 54 nM
NLWAGQRYGRELRRMSDEFVDSFKK [SEQ ID NO:25] | 105 nM
NLWAAQRYGRELRRMSAEFVDSFKK [SEQ ID NO:34] | 762 nM
NLWAAQRYGRELRRMSDEFVDSFKA [SEQ ID NO:29] | 22 nM
GGGAAQRYGRELRRMSDEFVDSFKK [SEQ ID NO:30] | 63 nM
NLWAAQRYGRELRRMSDEFVDAFKK [SEQ ID NO:26] | 26 nM
NAWAAQRYGRELRRMSDEFVDSFKK [SEQ ID NO:22] | 75 nM
NLWAAQRYARELRRMSDEFVAAFKK [SEQ ID NO:32] | 186 nM
QRYGRELRRMSDEFVDSFKK [SEQ ID NO:35] | 711 nM
NLWAAQRYGRELRRMSDEFVDSFAK [SEQ ID NO:28] | 123 nM
AAAAAQRYGRELRRMSDEFVDSFKK [SEQ ID NO:17] | 74 nM

Molecular target: mutant Bcl-2/iso1 protein (Bcl-2/iso1 residues 1-34, Bcl-xL loop residues 29-44, Bcl-2/iso1 residues 92-207; plasmid C) (human)
Assay: fluorescence polarization, direct titration of the fluoresceinated peptide with Bcl-2
Conditions: not given

Molecule | Kd
5FAM-AAAAAQRYGRELRRMSDEFVDSFKK [(5-FAM)-… (SEQ ID NO:17), fluorescein-labeled peptide probe (1)] | 20 nM
5FAM-AAAAAQRYGRELRRMSDEFVDSKK [(5-FAM)-… (SEQ ID NO:18), fluorescein-labeled peptide probe (2)] | 50 nM
{FITC′}-AAQRYGRELRRMSDEFVR [(FITC)-… (SEQ ID NO:19), fluorescein-labeled peptide probe (3)] | 100 nM

Test system: not listed separately
Assay: Isoelectric point of Bcl-2 / Bcl-xL proteins
Assay type: physicochemical, human
Conditions: pH at which the protein carries no net charge
Source text: As used herein, the term “isoelectric point” (or pI) refers to the pH at which the protein carries no net charge. The isoelectric points of Bcl-2/iso1, Bcl-2/iso2, and Bcl-2/iso3 are about 7.0, 7.2 and 7.2, respectively. The mutant proteins of the present invention have an isoelectric point lower than that of wild-type Bcl-2 and preferably, in the range of 4.5 to about 6.0. More preferably, the isoelectric point of a mutant protein of the invention is from 4.5 to about 5.5. A more preferred isoelectric point is from about 5.0 to about 5.5. A most preferred isoelectric point is 5.0. Means for determining the isoelectric point of a protein are well known to those of ordinary skill in the art.

Molecule | isoelectric point
Bcl-2/iso2: wild-type human Bcl-2 protein isoform 2 (SEQ ID NO:4) | ~7.2

Reference: patent publication US7226992B1, “Mutant Bcl-2 proteins and uses thereof” (Abbott Laboratories, priority 2000, dated 2007)
